Molecular target: PI-3-kinase (human (endogenous in Caco2)) (UniProt P42338)
Experiment: co-IP; as the basal co-IP, but Caco2 Dsg2^WT cells incubated for 24h with TNFα (100 ng/ml) before lysis; Dsg2/PI-3-kinase ratio of optical densities, fold of controls, n=4

UniProt P42338, sequence (P42338 whole entry): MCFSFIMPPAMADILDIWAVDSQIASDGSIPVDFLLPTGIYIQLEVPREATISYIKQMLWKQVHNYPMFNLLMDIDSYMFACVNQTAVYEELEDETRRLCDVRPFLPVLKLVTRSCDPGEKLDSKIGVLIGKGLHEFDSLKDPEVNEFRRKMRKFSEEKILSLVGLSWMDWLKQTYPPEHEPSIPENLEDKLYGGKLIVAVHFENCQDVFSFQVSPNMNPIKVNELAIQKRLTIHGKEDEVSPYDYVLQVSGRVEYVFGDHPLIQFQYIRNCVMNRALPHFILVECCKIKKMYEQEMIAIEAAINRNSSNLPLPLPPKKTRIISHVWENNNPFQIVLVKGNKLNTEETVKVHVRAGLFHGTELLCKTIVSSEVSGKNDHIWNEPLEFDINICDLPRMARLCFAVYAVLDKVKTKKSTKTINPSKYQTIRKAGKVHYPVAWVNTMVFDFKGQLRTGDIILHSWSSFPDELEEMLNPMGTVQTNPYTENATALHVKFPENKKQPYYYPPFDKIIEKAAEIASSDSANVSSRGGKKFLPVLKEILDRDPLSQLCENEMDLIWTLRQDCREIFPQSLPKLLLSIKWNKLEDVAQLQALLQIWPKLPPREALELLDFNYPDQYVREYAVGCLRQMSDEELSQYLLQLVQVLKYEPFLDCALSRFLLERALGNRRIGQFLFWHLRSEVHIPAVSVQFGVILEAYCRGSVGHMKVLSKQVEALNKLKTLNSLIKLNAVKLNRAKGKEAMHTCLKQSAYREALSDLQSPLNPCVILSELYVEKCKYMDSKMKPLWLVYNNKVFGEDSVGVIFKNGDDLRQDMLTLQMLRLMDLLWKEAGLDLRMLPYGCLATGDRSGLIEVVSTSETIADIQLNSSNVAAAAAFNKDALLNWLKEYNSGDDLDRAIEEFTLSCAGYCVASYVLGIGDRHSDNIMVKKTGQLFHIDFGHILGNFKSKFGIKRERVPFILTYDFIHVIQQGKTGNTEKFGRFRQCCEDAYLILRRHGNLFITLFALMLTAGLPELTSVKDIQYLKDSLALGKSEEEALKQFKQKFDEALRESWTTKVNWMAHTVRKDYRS

fold of controls (Dsg2/PI-3-kinase ratio in the co-IP, after TNFα) (fold of controls): 0.34
Substance: Desmoglein 2 (from UniProt Q14126 50-1118) (natural protein)

From publication PMC8514949
